Experimental data reported in the supplement of paper PMC10567573.

B1: GLT8D2 (parent)
chain: QEAKLLHWNGRHKPWDFPSVHNDL

Variants of: B1
Assay: protein stability index of a GFP-peptide fusion (GPS, HEK-293T) (PSI 1-6); higher = more stable
Settings: c terminus: a fixed tail appended
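Note: lentivirally expressed fusions sorted by FACS into six bins by GFP to DsRed ratio, PSI derived from sequencing read proportions per bin multiplied by bin number.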

Row | Variant | protein stability index
1 | QEAKLLHRNGRHKPWDFPSVHNDL [W8R] | 3.01
2 | QEAKLLHFNGRHKPWDFPSVHNDL [W8F] | 2.62
3 | QEAKLLHVNGRHKPWDFPSVHNDL [W8V] | 3.1
4 | QEAKLLHCNGRHKPWDFPSVHNDL [W8C] | 3.2
5 | QEAKLLHKNGRHKPWDFPSVHNDL [W8K] | 2.69
6 | QEAKLLHQNGRHKPWDFPSVHNDL [W8Q] | 3.71
7 | QEAKLLHWNGVHKPWDFPSVHNDL [R11V] | 2.62
8 | QEAKLLHWNGSHKPWDFPSVHNDL [R11S] | 2.82
9 | QEAKLLHWNGFHKPWDFPSVHNDL [R11F] | 2.58
10 | QEAKLLHWNGLHKPWDFPSVHNDL [R11L] | 2.34
11 | QEAKLLHWNGCHKPWDFPSVHNDL [R11C] | 2.55
12 | QEAKLLHWNGDHKPWDFPSVHNDL [R11D] | 3.33
13 | QEAKLLHWNGPHKPWDFPSVHNDL [R11P] | 2.33
14 | QEAKLLHWNGAHKPWDFPSVHNDL [R11A] | 3.24
15 | QEAKLLHWNGMHKPWDFPSVHNDL [R11M] | 3.1
16 | QEAKLLHWNGRHKWWDFPSVHNDL [P14W] | 2.19
17 | QEAKLLHWNGRHKYWDFPSVHNDL [P14Y] | 2.09
18 | QEAKLLHWNGRHKDWDFPSVHNDL [P14D] | 3.29
19 | QEAKLLHWNGRHKCWDFPSVHNDL [P14C] | 2.06
20 | QEAKLLHWNGRHKHWDFPSVHNDL [P14H] | 2.63
21 | QEAKLLHWNGRHKMWDFPSVHNDL [P14M] | 2.36
22 | QEAKLLHWNGRHKVWDFPSVHNDL [P14V] | 2.09
23 | QEAKLLHWNGRHKKWDFPSVHNDL [P14K] | 2.69
24 | QEAKLLHWNGRHKIWDFPSVHNDL [P14I] | 2.03

Row | Variant | protein stability index
25 | QEAKLLHWNGRHKEWDFPSVHNDL [P14E] | 3.16
26 | QEAKLLHWNGRHKQWDFPSVHNDL [P14Q] | 2.27
27 | QEAKLLHWNGRHKLWDFPSVHNDL [P14L] | 2.33
28 | QEAKLLHWNGRHEPWDFPSVHNDL [K13E] | 2.92
29 | QEAKLLHWNGRHSPWDFPSVHNDL [K13S] | 2.27
30 | QEAKLLHWNGRHIPWDFPSVHNDL [K13I] | 2.35
31 | QEAKLLHWNGRHCPWDFPSVHNDL [K13C] | 2.29
32 | QEAKLLHWNGRHDPWDFPSVHNDL [K13D] | 3.73
33 | QEAKLLHWNGRHHPWDFPSVHNDL [K13H] | 2.47
34 | QEAKLLHWNGRHRPWDFPSVHNDL [K13R] | 2.86
35 | QEAKLLHWNGRHKPWDFMSVHNDL [P18M] | 2.26
36 | QEAKLLHWNGRHKPWDFLSVHNDL [P18L] | 2.25
37 | QEAKLLHWNGRHKPWDFISVHNDL [P18I] | 2.23
38 | QEAKLLHWNGRHKPWDFRSVHNDL [P18R] | 2.41
39 | QEAKLLHWNGRHKPWDFYSVHNDL [P18Y] | 2.24
40 | QEAKLLHWNGRHKPWDFTSVHNDL [P18T] | 2.32
41 | QEAKLLHWNGRHKPWDFNSVHNDL [P18N] | 2.72
42 | QEAKLLHWNGRHKPWDFASVHNDL [P18A] | 2.23
43 | QEAKLLHWNGRHKPWDFHSVHNDL [P18H] | 2.58
44 | QEAKLLHWGGRHKPWDFPSVHNDL [N9G] | 2.59
45 | QEAKLLHWLGRHKPWDFPSVHNDL [N9L] | 1.83
46 | QEAKLLHWAGRHKPWDFPSVHNDL [N9A] | 2.71
47 | QEAKLLHWQGRHKPWDFPSVHNDL [N9Q] | 2.76
48 | QEAKLLHWRGRHKPWDFPSVHNDL [N9R] | 2.46

Row | Variant | protein stability index
49 | QEAKLLHWFGRHKPWDFPSVHNDL [N9F] | 1.98
50 | QEAKELHWNGRHKPWDFPSVHNDL [L5E] | 3.33
51 | QEAKSLHWNGRHKPWDFPSVHNDL [L5S] | 3.27
52 | QEAKILHWNGRHKPWDFPSVHNDL [L5I] | 2.73
53 | QEAKPLHWNGRHKPWDFPSVHNDL [L5P] | 3.05
54 | QEAKRLHWNGRHKPWDFPSVHNDL [L5R] | 2.92
55 | QEAKLLHWNGRHKPWDFPSVHNAL [D23A] | 1.96
56 | QEAKLLHWNGRHKPWDFPSVHNHL [D23H] | 2.38
57 | QEAKLLHWNGRHKPWDFPSVHNPL [D23P] | 2.27
58 | QEAKLLHWNGRHKPWDFPSVHNTL [D23T] | 2.55
59 | QEAKLLHWNGRHKPWDFPSVHNVL [D23V] | 2.81
60 | QEAKLLHWNGRHKPWDFPSVHNCL [D23C] | 2.43
61 | QEAKLLHWNGRHKPWDFPSVHNNL [D23N] | 1.86
62 | QEAKLLHWNGRHKPWDFPSVHNQL [D23Q] | 2.4
63 | QEAKLLHWNGRHKPWDFPSVHNML [D23M] | 1.92
64 | QEAKLLHWNGRHKPWDFPSVHNLL [D23L] | 1.48
65 | QEAKLWHWNGRHKPWDFPSVHNDL [L6W] | 2.26
66 | QEAKLEHWNGRHKPWDFPSVHNDL [L6E] | 3.74
67 | QEAKLQHWNGRHKPWDFPSVHNDL [L6Q] | 2.76
68 | QEAKLKHWNGRHKPWDFPSVHNDL [L6K] | 2.52
69 | QEACLLHWNGRHKPWDFPSVHNDL [K4C] | 2.3
70 | QEAWLLHWNGRHKPWDFPSVHNDL [K4W] | 2.7
71 | QEAILLHWNGRHKPWDFPSVHNDL [K4I] | 2.47
72 | QEAQLLHWNGRHKPWDFPSVHNDL [K4Q] | 2.5

Row | Variant | protein stability index
73 | QEAMLLHWNGRHKPWDFPSVHNDL [K4M] | 2.64
74 | QEATLLHWNGRHKPWDFPSVHNDL [K4T] | 2.92
75 | QEAFLLHWNGRHKPWDFPSVHNDL [K4F] | 2
76 | QEARLLHWNGRHKPWDFPSVHNDL [K4R] | 2.87
77 | QEAHLLHWNGRHKPWDFPSVHNDL [K4H] | 2.84
78 | QEAALLHWNGRHKPWDFPSVHNDL [K4A] | 2.81
79 | QEAKLLHWNGRHKPWDFPSVHNDG [L24G] | 3.07
80 | QEAKLLHWNGRHKPWDFPSVHNDE [L24E] | 4.01
81 | QEAKLLHWNGRHKPWDFPSVHNDC [L24C] | 3.01
82 | QEAKLLHWNGRHKPWDFPSVHNDI [L24I] | 2.44
83 | QEAKLLHWNGRHKPWDFPSVHNDM [L24M] | 2.98
84 | QEAKLLHWNGRHKPWDFPSVHNDK [L24K] | 2.87
85 | QEAKLLHWNGRHKPWDFPSVHNDW [L24W] | 2.06
86 | QEAKLLHWNGRHKPWDFPSVHNDA [L24A] | 3.33
87 | QEAKLLSWNGRHKPWDFPSVHNDL [H7S] | 2.69
88 | QEAKLLWWNGRHKPWDFPSVHNDL [H7W] | 2.84
89 | QEAKLLFWNGRHKPWDFPSVHNDL [H7F] | 2.41
90 | QEAKLLKWNGRHKPWDFPSVHNDL [H7K] | 2.48
91 | QEAKLLLWNGRHKPWDFPSVHNDL [H7L] | 2.15
92 | QEAKLLYWNGRHKPWDFPSVHNDL [H7Y] | 1.85
93 | QTAKLLHWNGRHKPWDFPSVHNDL [E2T] | 2.18
94 | QPAKLLHWNGRHKPWDFPSVHNDL [E2P] | 2.58
